Target: T1, preassembled pyrene-actin filaments (Gallus gallus, UniProt P68139)
T1 construct: Extract chicken breast acetone powder (as prepared above) in Buffer A; from tissue; host or cells: chicken breast muscle (actin); E. coli (cofilin, made in house)
Assay: pyrene actin assay (fluorescence of preassembled pyrene-actin filaments)
Assay type: biochemical, chicken
Settings: addition of stoichiometric amounts of cofilin to preassembled pyrene-actin filaments; binding to actin polymer and enhancing depolymerization combined
Text: Assays for the interaction of A. fumigatus cofilin and any other cofilin with actin in 384-well plates using a fluorescence as the detection means have been developed. The assays employ pyrene-labeled actin (Pollard (1984) J Cell Biol 99:769-777).
Upon addition of cofilin to filamentous pyrene-actin, two well-characterized biochemical activities can be monitored. First, cofilin binds to the filaments and partially quenches the pyrene fluorescence. Second, it induces filament disassembly, further decreasing pyrene fluorescence. The decrease in fluorescence that results when cofilin is added to filamentous actin is monitored (FIG. 3). An inhibitor of the interaction of cofilin with pyrene-actin will result in an increase in fluorescence.
This very robust signal can be exploited to an assay for modulators of cofilin. Chicken skeletal actin was used because it can be purified in quantities needed for high throughput screening; it is 90% identical in amino acid sequence to fungal actin, and it can assemble into copolymers with fungal actin. Pyrene-labeled skeletal actin has been prepared and characterized as to its polymerization properties as well as for its interaction with fungal cofilin.

B1: A. fumigatus cofilin: protein of A. fumigatus capable of binding actin, amino acid sequence SEQ ID NO:2, expressed in E. coli (protein, listed as Aspergillus fumigatus)
chain: MALASGVSIADECITAFNDFRMSGNKANKTKFIIFKIADNKKEVVIDEVSQEEDYEVFRSRLEATKDSKGNPAPRYAVYDVEYDLGGGEGKRSKIVFISWVPSDTPTLWSMIYASTRENLKNALNIHTSIHADDKGDIEWKTVLAEASGGKAGK
Question: For B1, which “reduction in fluorescence intensity” value is on record?
Answer: 3-5 fold

Source: patent publication US6458930B1, “Aspergillus fumigatus cofilin” (Cytokinetics, Inc., priority 2000, dated 2002)
